In paper doi:10.1101/2022.12.29.522231 (bioRxiv, 2022):

Columns and labels:
[1] = molecular target: catalytic domain of MMP-14 residues 110-300 (human, UniProt P50281 110-300); assay: enzyme inhibition assay
[2] = molecular target: catalytic domain of MMP-3 (WT), activated (UniProt P08254 100-272); assay: enzyme inhibition assay
Sequence of catalytic domain of MMP-3 (WT), activated (P08254 100-272): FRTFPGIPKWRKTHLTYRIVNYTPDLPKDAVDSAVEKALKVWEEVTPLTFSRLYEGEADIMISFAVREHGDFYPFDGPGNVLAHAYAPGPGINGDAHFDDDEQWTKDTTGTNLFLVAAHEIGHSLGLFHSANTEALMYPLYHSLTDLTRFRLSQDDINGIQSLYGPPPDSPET

B1: WT N-TIMP2 (N-terminal domain of tissue inhibitor of metalloproteinases-2), purified (domain or fragment, human, UniProt P16035 27-153, looked up)
chain: CSCSPVHPQQAFCNADVVIRAKAVSEKEVDSGNDIYGNPIKRIQYEIKQIKMFKGPEKDIEFIYTAPSSAVCGVSLDVGGKKEYLIAGKAEGDGKMHITLCDFIVPWDTLSTTQKKSLNHRYQMGCE
Ki [1]: 0.53 ± 0.1 nM
Ki [2]: 5.9 ± 0.7 nM
